Results reported in patent US8512703B2, “Idiotypic vaccine” (Areta International S.R.L., priority 2007, dated 2013).

T1: Class I HLA molecule A*0101 in recombinant form
T1 MHC heavy: not shown

T2: Class I HLA molecule A*0201 in recombinant form
T2 construct: also called HLA-A*0201
T2 MHC heavy: not shown

T3: Class I HLA molecule A*1101 in recombinant form (UniProt P04439 25-302)
T3 MHC heavy: not shown

T4: Class I HLA molecule A*2402 in recombinant form
T4 MHC heavy: not shown

T5: Class I HLA molecule B*0801 in recombinant form (UniProt P01889 25-309, limits assumed)
T5 MHC heavy: not shown

T6: Class I HLA molecule B*1501 in recombinant form (limits assumed)
T6 MHC heavy: not shown


Molecular target: T1, Class I HLA molecule A*0101 in …
Assay: iTopia ELISA-like peptide-HLA binding
Text: (§1) In order to identify and validate the immunogenic epitopes of the protein VK3-20, the iTopia™ high-throughput Epitope Discovery System was used (Beckman Coulter).

Binder | Bond results [%]
RLEPEDFAV [VK3-20 peptide No 78 RLEPEDFAV] | 1
TLSCRASQI (also called P20) [VK3-20 peptide No 20 TLSCRASQI] | 1
RLLIYGASS [VK3-20 peptide No 46 RLLIYGASS] | 0
VYYCQQYGS [VK3-20 peptide No 86 VYYCQQYGS] | 1
LLIYGASSR [VK3-20 peptide No 47 LLIYGASSR] | 0
VLTQSPGTL [VK3-20 peptide No 3 VLTQSPGTL] | 0
IVSSSYLAW [VK3-20 peptide No 28 IVSSSYLAW] | 0
SPRTFGQGT [VK3-20 peptide No 95 SPRTFGQGT] | 1
GQAPRLLIY [VK3-20 peptide No 42 GQAPRLLIY] | 0
KPGQAPRLL [VK3-20 peptide No 40 KPGQAPRLL] | 0
YLAWYQQKP [VK3-20 peptide No 33 YLAWYQQKP] | 0
FTLTISRLE [VK3-20 peptide No 72 FTLTISRLE] | 4
RTFGQGTKV [VK3-20 peptide No 97 RTFGQGTKV] | 1
LIYGASSRA [VK3-20 peptide No 48 LIYGASSRA] | 1
QYGSSPRTF [VK3-20 peptide No 91 QYGSSPRTF] | 1
QQYGSSPRT [VK3-20 peptide No 90 QQYGSSPRT] | 1
IVLTQSPGT [VK3-20 peptide No 2 IVLTQSPGT] | 1
VSSSYLAWY [VK3-20 peptide No 29 VSSSYLAWY] | 44

Molecular target: T2, Class I HLA molecule A*0201 in …
Assay: iTopia ELISA-like peptide-HLA binding
Text: as §1

Binder | Bond results [%]
RLEPEDFAV [VK3-20 peptide No 78 RLEPEDFAV] | 19
TLSCRASQI (also called P20) [VK3-20 peptide No 20 TLSCRASQI] | 28
RLLIYGASS [VK3-20 peptide No 46 RLLIYGASS] | 24
VYYCQQYGS [VK3-20 peptide No 86 VYYCQQYGS] | 1
LLIYGASSR [VK3-20 peptide No 47 LLIYGASSR] | 33
VLTQSPGTL [VK3-20 peptide No 3 VLTQSPGTL] | 23
SPRTFGQGT [VK3-20 peptide No 95 SPRTFGQGT] | 0
GQAPRLLIY [VK3-20 peptide No 42 GQAPRLLIY] | 10
KPGQAPRLL [VK3-20 peptide No 40 KPGQAPRLL] | 2
YLAWYQQKP [VK3-20 peptide No 33 YLAWYQQKP] | 41
FTLTISRLE [VK3-20 peptide No 72 FTLTISRLE] | 22
RTFGQGTKV [VK3-20 peptide No 97 RTFGQGTKV] | 30
LIYGASSRA [VK3-20 peptide No 48 LIYGASSRA] | 32
QYGSSPRTF [VK3-20 peptide No 91 QYGSSPRTF] | 0
QQYGSSPRT [VK3-20 peptide No 90 QQYGSSPRT] | 12
IVLTQSPGT [VK3-20 peptide No 2 IVLTQSPGT] | 22
VSSSYLAWY [VK3-20 peptide No 29 VSSSYLAWY] | 4

What follows are binders tested against Class I HLA molecule A*0301 in recombinant form (UniProt P04439 25-302) (assay: iTopia ELISA-like peptide-HLA binding).
Text: as §1

Binder | Bond results [%]
RLEPEDFAV [VK3-20 peptide No 78 RLEPEDFAV] | 2
TLSCRASQI (also called P20) [VK3-20 peptide No 20 TLSCRASQI] | 2
RLLIYGASS [VK3-20 peptide No 46 RLLIYGASS] | 0
VYYCQQYGS [VK3-20 peptide No 86 VYYCQQYGS] | 0
LLIYGASSR [VK3-20 peptide No 47 LLIYGASSR] | 4
VLTQSPGTL [VK3-20 peptide No 3 VLTQSPGTL] | 2
IVSSSYLAW [VK3-20 peptide No 28 IVSSSYLAW] | 4
SPRTFGQGT [VK3-20 peptide No 95 SPRTFGQGT] | 2
GQAPRLLIY [VK3-20 peptide No 42 GQAPRLLIY] | 10
KPGQAPRLL [VK3-20 peptide No 40 KPGQAPRLL] | 2
ASQIVSSSY [VK3-20 peptide No 25 ASQIVSSSY] | 2
YLAWYQQKP [VK3-20 peptide No 33 YLAWYQQKP] | 4
FTLTISRLE [VK3-20 peptide No 72 FTLTISRLE] | 2
RTFGQGTKV [VK3-20 peptide No 97 RTFGQGTKV] | 37
QYGSSPRTF [VK3-20 peptide No 91 QYGSSPRTF] | 1
QQYGSSPRT [VK3-20 peptide No 90 QQYGSSPRT] | 3
IVLTQSPGT [VK3-20 peptide No 2 IVLTQSPGT] | 1
VSSSYLAWY [VK3-20 peptide No 29 VSSSYLAWY] | 2

Molecular target: T3, Class I HLA molecule A*1101 in …
Assay: iTopia ELISA-like peptide-HLA binding
Text: as §1

Binder | Bond results [%]
RLEPEDFAV [VK3-20 peptide No 78 RLEPEDFAV] | 2
TLSCRASQI (also called P20) [VK3-20 peptide No 20 TLSCRASQI] | 2
VYYCQQYGS [VK3-20 peptide No 86 VYYCQQYGS] | 1
LLIYGASSR [VK3-20 peptide No 47 LLIYGASSR] | 85
VLTQSPGTL [VK3-20 peptide No 3 VLTQSPGTL] | 0
IVSSSYLAW [VK3-20 peptide No 28 IVSSSYLAW] | 3
SPRTFGQGT [VK3-20 peptide No 95 SPRTFGQGT] | 0
KPGQAPRLL [VK3-20 peptide No 40 KPGQAPRLL] | 0
YLAWYQQKP [VK3-20 peptide No 33 YLAWYQQKP] | 2
FTLTISRLE [VK3-20 peptide No 72 FTLTISRLE] | 4
RTFGQGTKV [VK3-20 peptide No 97 RTFGQGTKV] | 15
LIYGASSRA [VK3-20 peptide No 48 LIYGASSRA] | 60
QYGSSPRTF [VK3-20 peptide No 91 QYGSSPRTF] | 1
QQYGSSPRT [VK3-20 peptide No 90 QQYGSSPRT] | 11
IVLTQSPGT [VK3-20 peptide No 2 IVLTQSPGT] | 1

Molecular target: T4, Class I HLA molecule A*2402 in …
Assay: iTopia ELISA-like peptide-HLA binding
Text: as §1

Binder | Bond results [%]
TLSCRASQI (also called P20) [VK3-20 peptide No 20 TLSCRASQI] | 14
RLLIYGASS [VK3-20 peptide No 46 RLLIYGASS] | 0
VYYCQQYGS [VK3-20 peptide No 86 VYYCQQYGS] | 21
VLTQSPGTL [VK3-20 peptide No 3 VLTQSPGTL] | 18
IVSSSYLAW [VK3-20 peptide No 28 IVSSSYLAW] | 34
SPRTFGQGT [VK3-20 peptide No 95 SPRTFGQGT] | 12
GQAPRLLIY [VK3-20 peptide No 42 GQAPRLLIY] | 12
ASQIVSSSY [VK3-20 peptide No 25 ASQIVSSSY] | 13
YLAWYQQKP [VK3-20 peptide No 33 YLAWYQQKP] | 14
FTLTISRLE [VK3-20 peptide No 72 FTLTISRLE] | 18
QYGSSPRTF [VK3-20 peptide No 91 QYGSSPRTF] | 65
IVLTQSPGT [VK3-20 peptide No 2 IVLTQSPGT] | 11
VSSSYLAWY [VK3-20 peptide No 29 VSSSYLAWY] | 12

The binders below were run against Class I HLA molecule B*0702 in recombinant form (UniProt P01889 25-302) (assay: iTopia ELISA-like peptide-HLA binding).
Text: as §1

Binder | Bond results [%]
RLEPEDFAV [VK3-20 peptide No 78 RLEPEDFAV] | 4
TLSCRASQI (also called P20) [VK3-20 peptide No 20 TLSCRASQI] | 3
RLLIYGASS [VK3-20 peptide No 46 RLLIYGASS] | 0
LLIYGASSR [VK3-20 peptide No 47 LLIYGASSR] | 4
VLTQSPGTL [VK3-20 peptide No 3 VLTQSPGTL] | 0
SPRTFGQGT [VK3-20 peptide No 95 SPRTFGQGT] | 41
KPGQAPRLL [VK3-20 peptide No 40 KPGQAPRLL] | 29
FTLTISRLE [VK3-20 peptide No 72 FTLTISRLE] | 11
RTFGQGTKV [VK3-20 peptide No 97 RTFGQGTKV] | 1
IVLTQSPGT [VK3-20 peptide No 2 IVLTQSPGT] | 1
VSSSYLAWY [VK3-20 peptide No 29 VSSSYLAWY] | 1

Molecular target: T5, Class I HLA molecule B*0801 in …
Assay: iTopia ELISA-like peptide-HLA binding
Text: as §1

Binder | Bond results [%]
RLEPEDFAV [VK3-20 peptide No 78 RLEPEDFAV] | 0
RLLIYGASS [VK3-20 peptide No 46 RLLIYGASS] | 0
VYYCQQYGS [VK3-20 peptide No 86 VYYCQQYGS] | 0
LLIYGASSR [VK3-20 peptide No 47 LLIYGASSR] | 1
VLTQSPGTL [VK3-20 peptide No 3 VLTQSPGTL] | 1
IVSSSYLAW [VK3-20 peptide No 28 IVSSSYLAW] | 2
SPRTFGQGT [VK3-20 peptide No 95 SPRTFGQGT] | 2
GQAPRLLIY [VK3-20 peptide No 42 GQAPRLLIY] | 2
KPGQAPRLL [VK3-20 peptide No 40 KPGQAPRLL] | 1
ASQIVSSSY [VK3-20 peptide No 25 ASQIVSSSY] | 2
YLAWYQQKP [VK3-20 peptide No 33 YLAWYQQKP] | 2
FTLTISRLE [VK3-20 peptide No 72 FTLTISRLE] | 6
RTFGQGTKV [VK3-20 peptide No 97 RTFGQGTKV] | 2
LIYGASSRA [VK3-20 peptide No 48 LIYGASSRA] | 3
QYGSSPRTF [VK3-20 peptide No 91 QYGSSPRTF] | 1
QQYGSSPRT [VK3-20 peptide No 90 QQYGSSPRT] | 1
IVLTQSPGT [VK3-20 peptide No 2 IVLTQSPGT] | 2
VSSSYLAWY [VK3-20 peptide No 29 VSSSYLAWY] | 1

Molecular target: T6, Class I HLA molecule B*1501 in …
Assay: iTopia ELISA-like peptide-HLA binding
Text: as §1

Binder | Bond results [%]
RLEPEDFAV [VK3-20 peptide No 78 RLEPEDFAV] | 2
TLSCRASQI (also called P20) [VK3-20 peptide No 20 TLSCRASQI] | 1
RLLIYGASS [VK3-20 peptide No 46 RLLIYGASS] | 0
VYYCQQYGS [VK3-20 peptide No 86 VYYCQQYGS] | 1
VLTQSPGTL [VK3-20 peptide No 3 VLTQSPGTL] | 0
IVSSSYLAW [VK3-20 peptide No 28 IVSSSYLAW] | 0
SPRTFGQGT [VK3-20 peptide No 95 SPRTFGQGT] | 2
GQAPRLLIY [VK3-20 peptide No 42 GQAPRLLIY] | 49
KPGQAPRLL [VK3-20 peptide No 40 KPGQAPRLL] | 0
ASQIVSSSY [VK3-20 peptide No 25 ASQIVSSSY] | 49
YLAWYQQKP [VK3-20 peptide No 33 YLAWYQQKP] | 2
FTLTISRLE [VK3-20 peptide No 72 FTLTISRLE] | 3
RTFGQGTKV [VK3-20 peptide No 97 RTFGQGTKV] | 4
LIYGASSRA [VK3-20 peptide No 48 LIYGASSRA] | 11
QYGSSPRTF [VK3-20 peptide No 91 QYGSSPRTF] | 2
QQYGSSPRT [VK3-20 peptide No 90 QQYGSSPRT] | 24
IVLTQSPGT [VK3-20 peptide No 2 IVLTQSPGT] | 0
VSSSYLAWY [VK3-20 peptide No 29 VSSSYLAWY] | 2
